Test results taken from EP4663654A1 (Hangzhou Sciwind Biosciences Co., Ltd., dated 2025).
Starred links: 1 amine or outer side, 2 acyl side, 3 side chain; linkers in the order of their positions; H or OH if unused. Non-standard residues stand in square brackets, D forms with d. *: point of attachment. C20 diacid = O=C(O)CCCCCCCCCCCCCCCCCCC(=O)*; γGlu = O=C(O)[C@H](CCC(=O)[*:2])N[*:1]; Hyp = O=C(O)[C@@H]1C[C@@H](O)CN1; αMeN = C[C@](N)(CC(N)=O)C(=O)O

T1: human amylin receptor (AMY3) on CHO-K1/Ga15/AMY3 amylin receptor/CRE-luc cells (human, UniProt P30988 25-474; O60896 24-148)
T1 sequence (looked up) 1: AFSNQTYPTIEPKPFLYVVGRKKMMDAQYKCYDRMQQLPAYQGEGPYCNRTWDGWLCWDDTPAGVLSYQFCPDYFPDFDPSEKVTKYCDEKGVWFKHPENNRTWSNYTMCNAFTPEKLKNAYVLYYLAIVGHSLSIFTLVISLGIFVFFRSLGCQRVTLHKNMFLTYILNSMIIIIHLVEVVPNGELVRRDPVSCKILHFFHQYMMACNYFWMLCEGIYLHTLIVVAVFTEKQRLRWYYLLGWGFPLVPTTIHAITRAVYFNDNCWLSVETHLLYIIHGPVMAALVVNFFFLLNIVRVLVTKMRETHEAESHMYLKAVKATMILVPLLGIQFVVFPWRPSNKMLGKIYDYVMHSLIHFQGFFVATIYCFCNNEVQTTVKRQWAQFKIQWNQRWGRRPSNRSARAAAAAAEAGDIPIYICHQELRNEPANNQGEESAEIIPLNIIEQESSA
T1 sequence (looked up) 2: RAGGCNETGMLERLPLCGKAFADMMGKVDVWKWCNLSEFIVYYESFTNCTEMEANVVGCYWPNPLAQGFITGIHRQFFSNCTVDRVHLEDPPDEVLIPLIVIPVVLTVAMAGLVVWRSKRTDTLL

B1: polypeptide derivative M1 (peptide)
peptide: {C20 diacid-γGlu}-ASELSTAALGRLADFLRHSSNNLKPILPPTNVGSNT[Hyp]-NH2
SMILES: CC[C@H](C)[C@H](NC(=O)[C@@H]1CCCN1C(=O)[C@H](CCCCN)NC(=O)[C@H](CC(C)C)NC(=O)[C@H](CC(N)=O)NC(=O)[C@H](CC(N)=O)NC(=O)[C@H](CO)NC(=O)[C@H](CO)NC(=O)[C@H](Cc1c[nH]cn1)NC(=O)[C@H](CCCNC(=N)N)NC(=O)[C@H](CC(C)C)NC(=O)[C@H](Cc1ccccc1)NC(=O)[C@H](CC(=O)O)NC(=O)[C@H](C)NC(=O)[C@H](CC(C)C)NC(=O)[C@H](CCCNC(=N)N)NC(=O)CNC(=O)[C@H](CC(C)C)NC(=O)[C@H](C)NC(=O)[C@H](C)NC(=O)[C@@H](NC(=O)[C@H](CO)NC(=O)[C@H](CC(C)C)NC(=O)[C@H](CCC(=O)O)NC(=O)[C@H](CO)NC(=O)[C@H](C)NC(=O)CC[C@H](NC(=O)CCCCCCCCCCCCCCCCCCC(=O)O)C(=O)O)[C@@H](C)O)C(=O)N[C@@H](CC(C)C)C(=O)N1CCC[C@H]1C(=O)N1CCC[C@H]1C(=O)N[C@H](C(=O)N[C@@H](CC(N)=O)C(=O)N[C@H](C(=O)NCC(=O)N[C@@H](CO)C(=O)N[C@@H](CC(N)=O)C(=O)N[C@H](C(=O)N1C[C@H](O)C[C@H]1C(N)=O)[C@@H](C)O)C(C)C)[C@@H](C)O
B2: polypeptide derivative M7 (peptide)
peptide: {C20 diacid-γGlu}-ASQLSTAVTQRLADFLRHSSNNLKPILPPTNVGSNT[Hyp]-NH2
SMILES: CC[C@H](C)[C@H](NC(=O)[C@@H]1CCCN1C(=O)[C@H](CCCCN)NC(=O)[C@H](CC(C)C)NC(=O)[C@H](CC(N)=O)NC(=O)[C@H](CC(N)=O)NC(=O)[C@H](CO)NC(=O)[C@H](CO)NC(=O)[C@H](Cc1c[nH]cn1)NC(=O)[C@H](CCCNC(=N)N)NC(=O)[C@H](CC(C)C)NC(=O)[C@H](Cc1ccccc1)NC(=O)[C@H](CC(=O)O)NC(=O)[C@H](C)NC(=O)[C@H](CC(C)C)NC(=O)[C@H](CCCNC(=N)N)NC(=O)[C@H](CCC(N)=O)NC(=O)[C@@H](NC(=O)[C@@H](NC(=O)[C@H](C)NC(=O)[C@@H](NC(=O)[C@H](CO)NC(=O)[C@H](CC(C)C)NC(=O)[C@H](CCC(N)=O)NC(=O)[C@H](CO)NC(=O)[C@H](C)NC(=O)CC[C@H](NC(=O)CCCCCCCCCCCCCCCCCCC(=O)O)C(=O)O)[C@@H](C)O)C(C)C)[C@@H](C)O)C(=O)N[C@@H](CC(C)C)C(=O)N1CCC[C@H]1C(=O)N1CCC[C@H]1C(=O)N[C@H](C(=O)N[C@@H](CC(N)=O)C(=O)N[C@H](C(=O)NCC(=O)N[C@@H](CO)C(=O)N[C@@H](CC(N)=O)C(=O)N[C@H](C(=O)N1C[C@H](O)C[C@H]1C(N)=O)[C@@H](C)O)C(C)C)[C@@H](C)O
B3: polypeptide derivative M55 (peptide)
peptide: {C20 diacid-γGlu}-ASQLSTAATQRLADFLRHSSN[αMeN]LKPILPPTNVGSNT[Hyp]-NH2
B4: polypeptide derivative M5 (peptide)
peptide: {C20 diacid-γGlu}-ASQLSTAATQRLADFLRHSSNNLKPILPPTNVGSNT[Hyp]-NH2
SMILES: CC[C@H](C)[C@H](NC(=O)[C@@H]1CCCN1C(=O)[C@H](CCCCN)NC(=O)[C@H](CC(C)C)NC(=O)[C@H](CC(N)=O)NC(=O)[C@H](CC(N)=O)NC(=O)[C@H](CO)NC(=O)[C@H](CO)NC(=O)[C@H](Cc1c[nH]cn1)NC(=O)[C@H](CCCNC(=N)N)NC(=O)[C@H](CC(C)C)NC(=O)[C@H](Cc1ccccc1)NC(=O)[C@H](CC(=O)O)NC(=O)[C@H](C)NC(=O)[C@H](CC(C)C)NC(=O)[C@H](CCCNC(=N)N)NC(=O)[C@H](CCC(N)=O)NC(=O)[C@@H](NC(=O)[C@H](C)NC(=O)[C@H](C)NC(=O)[C@@H](NC(=O)[C@H](CO)NC(=O)[C@H](CC(C)C)NC(=O)[C@H](CCC(N)=O)NC(=O)[C@H](CO)NC(=O)[C@H](C)NC(=O)CC[C@H](NC(=O)CCCCCCCCCCCCCCCCCCC(=O)O)C(=O)O)[C@@H](C)O)[C@@H](C)O)C(=O)N[C@@H](CC(C)C)C(=O)N1CCC[C@H]1C(=O)N1CCC[C@H]1C(=O)N[C@H](C(=O)N[C@@H](CC(N)=O)C(=O)N[C@H](C(=O)NCC(=O)N[C@@H](CO)C(=O)N[C@@H](CC(N)=O)C(=O)N[C@H](C(=O)N1C[C@H](O)C[C@H]1C(N)=O)[C@@H](C)O)C(C)C)[C@@H](C)O
B5: polypeptide derivative M53 (peptide)
peptide: {C20 diacid-γGlu}-ASQLSTAATQRLADFLRHSSKNLKPILPPTNVGSNT[Hyp]-NH2
SMILES: CC[C@H](C)[C@H](NC(=O)[C@@H]1CCCN1C(=O)[C@H](CCCCN)NC(=O)[C@H](CC(C)C)NC(=O)[C@H](CC(N)=O)NC(=O)[C@H](CCCCN)NC(=O)[C@H](CO)NC(=O)[C@H](CO)NC(=O)[C@H](Cc1c[nH]cn1)NC(=O)[C@H](CCCNC(=N)N)NC(=O)[C@H](CC(C)C)NC(=O)[C@H](Cc1ccccc1)NC(=O)[C@H](CC(=O)O)NC(=O)[C@H](C)NC(=O)[C@H](CC(C)C)NC(=O)[C@H](CCCNC(=N)N)NC(=O)[C@H](CCC(N)=O)NC(=O)[C@@H](NC(=O)[C@H](C)NC(=O)[C@H](C)NC(=O)[C@@H](NC(=O)[C@H](CO)NC(=O)[C@H](CC(C)C)NC(=O)[C@H](CCC(N)=O)NC(=O)[C@H](CO)NC(=O)[C@H](C)NC(=O)CC[C@H](NC(=O)CCCCCCCCCCCCCCCCCCC(=O)O)C(=O)O)[C@@H](C)O)[C@@H](C)O)C(=O)N[C@@H](CC(C)C)C(=O)N1CCC[C@H]1C(=O)N1CCC[C@H]1C(=O)N[C@H](C(=O)N[C@@H](CC(N)=O)C(=O)N[C@H](C(=O)NCC(=O)N[C@@H](CO)C(=O)N[C@@H](CC(N)=O)C(=O)N[C@H](C(=O)N1C[C@H](O)C[C@H]1C(N)=O)[C@@H](C)O)C(C)C)[C@@H](C)O
B6: polypeptide derivative M54 (peptide)
peptide: {C20 diacid-γGlu}-ASQLSTAATQRLADFLRHSSRNLKPILPPTNVGSNT[Hyp]-NH2
SMILES: CC[C@H](C)[C@H](NC(=O)[C@@H]1CCCN1C(=O)[C@H](CCCCN)NC(=O)[C@H](CC(C)C)NC(=O)[C@H](CC(N)=O)NC(=O)[C@H](CCCNC(=N)N)NC(=O)[C@H](CO)NC(=O)[C@H](CO)NC(=O)[C@H](Cc1c[nH]cn1)NC(=O)[C@H](CCCNC(=N)N)NC(=O)[C@H](CC(C)C)NC(=O)[C@H](Cc1ccccc1)NC(=O)[C@H](CC(=O)O)NC(=O)[C@H](C)NC(=O)[C@H](CC(C)C)NC(=O)[C@H](CCCNC(=N)N)NC(=O)[C@H](CCC(N)=O)NC(=O)[C@@H](NC(=O)[C@H](C)NC(=O)[C@H](C)NC(=O)[C@@H](NC(=O)[C@H](CO)NC(=O)[C@H](CC(C)C)NC(=O)[C@H](CCC(N)=O)NC(=O)[C@H](CO)NC(=O)[C@H](C)NC(=O)CC[C@H](NC(=O)CCCCCCCCCCCCCCCCCCC(=O)O)C(=O)O)[C@@H](C)O)[C@@H](C)O)C(=O)N[C@@H](CC(C)C)C(=O)N1CCC[C@H]1C(=O)N1CCC[C@H]1C(=O)N[C@H](C(=O)N[C@@H](CC(N)=O)C(=O)N[C@H](C(=O)NCC(=O)N[C@@H](CO)C(=O)N[C@@H](CC(N)=O)C(=O)N[C@H](C(=O)N1C[C@H](O)C[C@H]1C(N)=O)[C@@H](C)O)C(C)C)[C@@H](C)O
B7: polypeptide derivative M6 (peptide)
peptide: {C20 diacid-γGlu}-ASQLSTAATQRLADFLRHFTDRDRDILPPTNVGSNTP-NH2
SMILES: CC[C@H](C)[C@H](NC(=O)[C@H](CC(=O)O)NC(=O)[C@H](CCCNC(=N)N)NC(=O)[C@H](CC(=O)O)NC(=O)[C@H](CCCNC(=N)N)NC(=O)[C@H](CC(=O)O)NC(=O)[C@@H](NC(=O)[C@H](Cc1ccccc1)NC(=O)[C@H](Cc1c[nH]cn1)NC(=O)[C@H](CCCNC(=N)N)NC(=O)[C@H](CC(C)C)NC(=O)[C@H](Cc1ccccc1)NC(=O)[C@H](CC(=O)O)NC(=O)[C@H](C)NC(=O)[C@H](CC(C)C)NC(=O)[C@H](CCCNC(=N)N)NC(=O)[C@H](CCC(N)=O)NC(=O)[C@@H](NC(=O)[C@H](C)NC(=O)[C@H](C)NC(=O)[C@@H](NC(=O)[C@H](CO)NC(=O)[C@H](CC(C)C)NC(=O)[C@H](CCC(N)=O)NC(=O)[C@H](CO)NC(=O)[C@H](C)NC(=O)CC[C@H](NC(=O)CCCCCCCCCCCCCCCCCCC(=O)O)C(=O)O)[C@@H](C)O)[C@@H](C)O)[C@@H](C)O)C(=O)N[C@@H](CC(C)C)C(=O)N1CCC[C@H]1C(=O)N1CCC[C@H]1C(=O)N[C@H](C(=O)N[C@@H](CC(N)=O)C(=O)N[C@H](C(=O)NCC(=O)N[C@@H](CO)C(=O)N[C@@H](CC(N)=O)C(=O)N[C@H](C(=O)N1CCC[C@H]1C(N)=O)[C@@H](C)O)C(C)C)[C@@H](C)O

Each binder was assayed against T1, human amylin receptor (AMY3) on … (assay: cell-based or functional assay).
B1 was tested, and the “EC50/nM, CRE-luciferase reporter in amylin receptor/CRE-luc CHO cells” value (“EC50/nM … in amylin receptor/CRE-luc CHO cells” for short) was 0.053 nM and the “Relative activity (the EC50 ratio of Cagrilintide to the compound)” value was 49%. B2 was tested, and the “EC50/nM … in amylin receptor/CRE-luc CHO cells” value was 0.066 nM and the “Relative activity (the EC50 ratio of Cagrilintide to the compound)” value was 39%. For B3, the “EC50/nM … in amylin receptor/CRE-luc CHO cells” value was 0.03 nM and the “Relative activity (the EC50 ratio of Cagrilintide to the compound)” value was 233%. With B4 the “EC50/nM … in amylin receptor/CRE-luc CHO cells” value was 0.031 nM and the “Relative activity (the EC50 ratio of Cagrilintide to the compound)” value was 84%. For B5, the “EC50/nM … in amylin receptor/CRE-luc CHO cells” value was 0.08 nM and the “Relative activity (the EC50 ratio of Cagrilintide to the compound)” value was 200%. B6 was tested, and the “EC50/nM … in amylin receptor/CRE-luc CHO cells” value was 0.06 nM and the “Relative activity (the EC50 ratio of Cagrilintide to the compound)” value was 267%. B7 was tested, and the “EC50/nM … in amylin receptor/CRE-luc CHO cells” value was 0.042 nM and the “Relative activity (the EC50 ratio of Cagrilintide to the compound)” value was 62%.
